Source: US12534534 (F STAR BETA, dated 2026)
Residue numbers refer to the chain shown, from its start. In names and notes the source's numbering stands.

T1: NGFR-Fc (human, UniProt P08138 29-250)
T1 construct: bought; also called NGFR (R&D Systems, 367-NR-050/CF); not shown: Fc part of the bought fusion
T1 sequence (looked up): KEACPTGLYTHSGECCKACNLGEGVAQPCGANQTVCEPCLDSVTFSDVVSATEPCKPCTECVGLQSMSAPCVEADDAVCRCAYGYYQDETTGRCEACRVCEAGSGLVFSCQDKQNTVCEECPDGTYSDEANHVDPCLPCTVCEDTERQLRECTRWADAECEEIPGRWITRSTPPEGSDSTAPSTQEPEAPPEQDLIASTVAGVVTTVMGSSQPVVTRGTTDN

T2: DR6-Fc (human, UniProt O75509 42-349, limits assumed)
T2 construct: bought; also called human DR6 (R&D Systems, 144-DR-100); not shown: Fc part of the bought fusion
T2 sequence (looked up): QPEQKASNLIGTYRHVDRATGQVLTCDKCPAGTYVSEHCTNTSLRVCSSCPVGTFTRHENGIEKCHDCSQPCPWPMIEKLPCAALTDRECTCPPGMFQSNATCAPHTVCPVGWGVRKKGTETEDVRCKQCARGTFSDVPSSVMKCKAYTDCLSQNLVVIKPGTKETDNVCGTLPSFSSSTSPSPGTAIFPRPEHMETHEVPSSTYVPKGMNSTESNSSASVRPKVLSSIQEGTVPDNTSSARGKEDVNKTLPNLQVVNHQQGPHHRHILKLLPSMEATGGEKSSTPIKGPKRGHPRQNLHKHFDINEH

T3: TNFRSF1B-Fc (human, UniProt P20333 23-257)
T3 construct: bought; also called TNFRSF1B (R&D Systems, 726-R2-050); not shown: Fc part of the bought fusion
T3 sequence (looked up): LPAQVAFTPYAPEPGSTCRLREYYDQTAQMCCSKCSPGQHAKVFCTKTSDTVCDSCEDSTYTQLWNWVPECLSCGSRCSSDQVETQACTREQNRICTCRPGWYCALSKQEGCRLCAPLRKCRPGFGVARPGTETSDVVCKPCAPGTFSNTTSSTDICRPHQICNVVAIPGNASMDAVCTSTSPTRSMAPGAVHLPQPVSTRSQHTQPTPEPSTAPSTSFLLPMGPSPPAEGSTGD

T4: GITR-hFc-Avi (human, UniProt Q9Y5U5 26-161)
T4 construct: in-house produced; not shown: hFc and Avi part
T4 sequence: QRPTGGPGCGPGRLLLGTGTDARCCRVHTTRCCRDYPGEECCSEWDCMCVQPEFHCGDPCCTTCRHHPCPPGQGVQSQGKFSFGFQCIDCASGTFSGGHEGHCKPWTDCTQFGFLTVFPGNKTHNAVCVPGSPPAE

T5: TNFRSF1A-Fc (human, UniProt P19438 30-211, limits assumed)
T5 construct: bought; also called TNFRSF1A (R&D Systems, 372-RI-050/CF); not shown: Fc part of the bought fusion
T5 sequence (looked up): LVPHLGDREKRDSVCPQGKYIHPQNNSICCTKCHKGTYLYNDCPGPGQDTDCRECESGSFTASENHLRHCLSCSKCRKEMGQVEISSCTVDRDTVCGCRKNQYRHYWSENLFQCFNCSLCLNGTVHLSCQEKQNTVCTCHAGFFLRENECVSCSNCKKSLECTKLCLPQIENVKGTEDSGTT

T6: cyno CD137 on DO11.10-cCD137 cells (cynomolgus, UniProt Q07011 24-255 (human entry))
T6 chain: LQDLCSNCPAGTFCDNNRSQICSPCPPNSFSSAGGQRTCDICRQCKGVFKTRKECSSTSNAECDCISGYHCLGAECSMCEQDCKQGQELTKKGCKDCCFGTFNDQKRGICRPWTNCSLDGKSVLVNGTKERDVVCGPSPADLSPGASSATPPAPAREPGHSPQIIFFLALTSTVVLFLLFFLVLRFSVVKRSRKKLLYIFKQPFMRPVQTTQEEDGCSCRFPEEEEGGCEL

B1: FS20-22-49AA/FS30-10-3 (bispecific antibody, human IgG1, kappa, L234A L235A, V domains shown)
VH: EVQLLESGGGLVQPGGSLRLSCAASGFTFSSYDMSWVRQAPGKGLEWVSDIDPTGSKTDYADSVKGRFTISRDNSKNTLYLQMNSLRAEDTAVYYCARDLNVYGFDYWGQGTLVTVSS
VL: EIVLTQSPGTLSLSPGERATLSCRASQSVSSSYLAWYQQKPGQAPRLLIYGASSRATGIPDRFSGSGSGTDFTLTISRLEPEDFAVYYCQQSYSYPVTFGQGTKVEIKR
notes: M97 (Kabat) to N against FS30-10; also called FS30-10-3 in mAb^2 format
B2: FS20-22-49AA/FS30-10-12 (bispecific antibody, human IgG1, kappa, L234A L235A, V domains shown)
VH: B1 VH with N101T
VL: B1 VL
notes: M97 (Kabat) to T against FS30-10; also called FS30-10-12 in mAb^2 format
B3: FS20-22-49AA/FS30-10-16 (bispecific antibody, human IgG1, kappa, L234A L235A, V domains shown)
VH: B1 VH with N101L
VL: B1 VL
notes: M97 (Kabat) to L against FS30-10; also called FS30-10-16 in mAb^2 format
B4: FS20-22-49AA/FS30-5-37 (bispecific antibody, human IgG1, kappa, L234A L235A, V domains shown)
VH: EVQLLESGGGLVQPGGSLRLNCAASGFTFSSYAMSWVRQAPGKGLEWVSAISGSGGSTYYADSVKGRFTISRDNSKNTLYLQMNSLRAEDTAVYYCARSYDKYWGSSIYSGLDYWGQGTLVTVSS
VL: EIVLTQSPGTLSLSPGERATLSCRASQSVSSSYLAWYQQKPGQAPRLLIYGASSRATGIPDRFSGSGSGTDFTLTISRLEPEDFAVYYCQQYYSYYPVTFGQGTKVEIKR
notes: M100D to I and M100H to L against FS30-5; also called FS30-5-37 in mAb^2 format
B5: FS20-22-49AA/FS30-35-14 (bispecific antibody, human IgG1, kappa, L234A L235A, V domains shown)
VH: EVQLLESGGGLVQPGGSLRLSCAASGFTFSAYNIHWVRQAPGKGLEWVSDISPYGGATNYADSVKGRFTISRDNSKNTLYLQMNSLRAEDTAVYYCARNLYELSAYSYGADYWGQGTLVTVSS
VL: B4 VL with S94Y, Y95S, Y96S, V98I
notes: M100F (Kabat) to A against FS30-35; also called FS30-35-14 in mAb^2 format

These binders were tested against T1, NGFR-Fc (assay: SPR, antigen immobilised on CM5 chip).

| Binder | binding result |
| --- | --- |
| B1 | no binding (tested: 1 µM (protocol of Example 3.1)) |
| B2 | no binding (tested: 1 µM (protocol of Example 3.1)) |
| B3 | no binding (tested: 1 µM (protocol of Example 3.1)) |
| B4 | no binding (tested: 1 µM (protocol of Example 3.1)) |
| B5 | no binding (tested: 1 µM (protocol of Example 3.1)) |

These binders were tested against T7, CD40-mFc (human, UniProt P25942 21-193) (assay: SPR, antigen immobilised on CM5 chip).
T7 construct: in-house produced; not shown: mFc part

| Binder | binding result |
| --- | --- |
| B1 | no binding (tested: 1 µM (protocol of Example 3.1)) |
| B2 | no binding (tested: 1 µM (protocol of Example 3.1)) |
| B3 | no binding (tested: 1 µM (protocol of Example 3.1)) |
| B4 | no binding (tested: 1 µM (protocol of Example 3.1)) |
| B5 | no binding (tested: 1 µM (protocol of Example 3.1)) |

These binders were tested against T2, DR6-Fc (assay: SPR, antigen immobilised on CM5 chip).

| Binder | binding result |
| --- | --- |
| B1 | no binding (tested: 1 µM (protocol of Example 3.1)) |
| B2 | no binding (tested: 1 µM (protocol of Example 3.1)) |
| B3 | no binding (tested: 1 µM (protocol of Example 3.1)) |
| B4 | no binding (tested: 1 µM (protocol of Example 3.1)) |
| B5 | no binding (tested: 1 µM (protocol of Example 3.1)) |

The binders below were run against T3, TNFRSF1B-Fc (assay: SPR, antigen immobilised on CM5 chip).

| Binder | binding result |
| --- | --- |
| B1 | no binding (tested: 1 µM (protocol of Example 3.1)) |
| B2 | no binding (tested: 1 µM (protocol of Example 3.1)) |
| B3 | no binding (tested: 1 µM (protocol of Example 3.1)) |
| B4 | no binding (tested: 1 µM (protocol of Example 3.1)) |
| B5 | no binding (tested: 1 µM (protocol of Example 3.1)) |

Each binder was assayed against T4, GITR-hFc-Avi (assay: SPR, antigen immobilised on CM5 chip).

| Binder | binding result |
| --- | --- |
| B1 | no binding (tested: 1 µM (protocol of Example 3.1)) |
| B2 | no binding (tested: 1 µM (protocol of Example 3.1)) |
| B3 | no binding (tested: 1 µM (protocol of Example 3.1)) |
| B4 | no binding (tested: 1 µM (protocol of Example 3.1)) |
| B5 | no binding (tested: 1 µM (protocol of Example 3.1)) |

Each binder was assayed against T5, TNFRSF1A-Fc (assay: SPR, antigen immobilised on CM5 chip).

| Binder | binding result |
| --- | --- |
| B1 | no binding (tested: 1 µM (protocol of Example 3.1)) |
| B2 | no binding (tested: 1 µM (protocol of Example 3.1)) |
| B3 | no binding (tested: 1 µM (protocol of Example 3.1)) |
| B4 | no binding (tested: 1 µM (protocol of Example 3.1)) |
| B5 | no binding (tested: 1 µM (protocol of Example 3.1)) |

Molecular target: T6, cyno CD137 on DO11.10-cCD137 cells
Experiment: cell-based or functional assay

| EC50 (nM), mIL-2 release, DO11.10-cCD137 T cell assay, crosslinked (mean of n = 2) [nM] | Emax (mIL-2 pg/ml), DO11.10-cCD137 T cell assay, crosslinked [pg/mL] | Binder |
| --- | --- | --- |
| 5 | 49400 | B1 |
| 5.8 | 46900 | B2 |
| 3.7 | 50100 | B3 |
| 7.5 | 45700 | B4 |
| 6.6 | 69700 | B5 |

The binders below were run against T8, hCD137-mFc-Avi (human, UniProt Q07011 24-186) (assay: ELISA, hCD137-mFc-Avi coated, 100 nM antibody, competitor CD137L-His; normalised to G1/11D4 = 0 and G1/MOR7480.1 = 100; mean of n=2).
T8 construct: dimer; also called human CD137-mFc-Avi; human CD137-mFc
Method: The following day, plates were washed with PBST (PBS+0.05% Tween20™) and blocked with PBS+1% BSA (Sigma, A3059-500G) for 1 hour at room temperature with agitation. After blocking, the plates were washed again with PBST. A 100 nM dilution of each test antibody was prepared in PBS+1% BSA and added to the CD137-coated plates and incubated for 1 hour at room temperature with agitation. […] The plates were then washed with PBST and then incubated with anti-his secondary antibody (R&D Systems, MAB050H) at a 1 in 1000 dilution in PBS for 1 hour at room temperature with agitation. The plates were then washed with PBST and incubated with TMB detection reagent (Thermo Fisher Scientific, 002023) until the positive control wells turned blue and then the reaction was stopped with the addition of 2N H_2SO_4. Plates were read at 450 nm using the plate reader with Gen5 Software, BioTek. Absorbance values of 630 nm were subtracted from those of 450 nm (Correction). The subtracted absorbance values were plotted vs the log concentration of antibody and the resulting curves were fitted using the log (inhibitor) vs response equation in GraphPad Prism.

| % CD137 ligand blocking activity [%] | Binder |
| --- | --- |
| 49.4 | B1 |
| 53.8 | B2 |
| 48.1 | B3 |
| 107 | B4 |
| 6.6 | B5 |

Each binder was assayed against human CD137 on DO11.10-hCD137 cells (human, UniProt Q07011 24-255) (assay: cell-based or functional assay).

| DO11.10-hCD137 T cell activation assay EC50 (nM), crosslinked [nM] | Binder |
| --- | --- |
| 4.8 | B1 |
| 4.5 | B2 |
| 3.7 | B3 |
| 6.3 | B5 |
